Source: US20250059288A1 (GRANITE BIO, published 2025)
One block for each binder: values may come before it.

What was measured:
[1] = molecular target: T1, Marmoset CCR2b (Marmo-CCR2b) (marmoset monkey (Callithrix jacchus)); test: flow cytometry on marmoset splenocytes (legend of FIG. 8)
T1 construct: On transfected CHO cells and, as native CCR2, on marmoset monocytes (splenocytes, PBMCs)
T1 chain: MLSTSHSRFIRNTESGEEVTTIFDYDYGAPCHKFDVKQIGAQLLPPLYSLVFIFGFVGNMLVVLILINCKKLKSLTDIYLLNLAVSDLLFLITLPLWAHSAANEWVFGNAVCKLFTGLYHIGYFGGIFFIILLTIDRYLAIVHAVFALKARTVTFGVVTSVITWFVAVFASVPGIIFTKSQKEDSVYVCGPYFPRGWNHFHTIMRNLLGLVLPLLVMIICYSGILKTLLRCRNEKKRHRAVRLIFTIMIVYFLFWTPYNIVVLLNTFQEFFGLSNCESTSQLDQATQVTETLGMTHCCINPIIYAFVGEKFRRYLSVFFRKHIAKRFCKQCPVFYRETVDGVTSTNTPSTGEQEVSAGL

Human CCR5 [2] = molecular target: T2, Human CCR5 (human, UniProt P51681 1-352); test: flow cytometry on CHO cells transfected with human CCR5
T2 construct: On transfected CHO cells; also called CD195
T2 sequence (P51681 whole entry): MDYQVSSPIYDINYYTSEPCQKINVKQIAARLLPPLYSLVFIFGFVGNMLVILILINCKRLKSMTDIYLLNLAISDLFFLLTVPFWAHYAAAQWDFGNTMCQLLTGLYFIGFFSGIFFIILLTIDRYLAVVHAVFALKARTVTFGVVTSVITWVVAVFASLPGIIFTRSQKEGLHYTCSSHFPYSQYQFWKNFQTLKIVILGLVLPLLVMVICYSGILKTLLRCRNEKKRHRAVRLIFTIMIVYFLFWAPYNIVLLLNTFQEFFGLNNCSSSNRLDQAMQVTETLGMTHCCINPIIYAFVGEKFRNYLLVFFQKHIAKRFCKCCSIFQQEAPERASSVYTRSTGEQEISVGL

Mouse CCR2 = molecular target: T3, Mouse CCR2 (mouse, UniProt P51683 1-373); test: flow cytometry on mouse CCR2 CHO cells, various concentrations
T3 construct: whole, on cells
T3 sequence (P51683 whole entry): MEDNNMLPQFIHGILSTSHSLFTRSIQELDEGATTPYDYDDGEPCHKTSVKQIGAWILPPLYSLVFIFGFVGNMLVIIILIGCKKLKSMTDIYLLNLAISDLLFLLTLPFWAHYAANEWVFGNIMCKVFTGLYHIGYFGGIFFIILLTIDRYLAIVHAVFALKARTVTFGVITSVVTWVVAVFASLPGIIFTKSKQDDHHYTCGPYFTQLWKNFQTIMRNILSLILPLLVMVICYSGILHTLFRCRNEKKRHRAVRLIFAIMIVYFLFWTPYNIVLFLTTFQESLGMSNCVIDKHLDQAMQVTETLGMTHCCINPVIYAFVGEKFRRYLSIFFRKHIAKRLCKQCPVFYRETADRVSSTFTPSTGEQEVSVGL
Procedure: Mouse CCR2 CHO cells and human CCR2 CHO cells were incubated for 45 min on ice with PBS or various concentrations of hY4T3. After 3 washing steps with cold PBS, cells were stained PE-F(ab)2 goat anti human IgG (1:300; Jackson, Cat.No.109-116-098) for 30 min on ice. After 3 washing steps with cold PBS cells were analyzed by FACS to measure mean fluorescence intensity (MFI).

Human CCR2b (hCCR2b) [3] = molecular target: T4, Human CCR2b (hCCR2b) (human, UniProt P41597-2 1-360); test: flow cytometry on human whole blood, 0.5 µg/ml
T4 construct: also called CD192; MCP-1 receptor
T4 sequence: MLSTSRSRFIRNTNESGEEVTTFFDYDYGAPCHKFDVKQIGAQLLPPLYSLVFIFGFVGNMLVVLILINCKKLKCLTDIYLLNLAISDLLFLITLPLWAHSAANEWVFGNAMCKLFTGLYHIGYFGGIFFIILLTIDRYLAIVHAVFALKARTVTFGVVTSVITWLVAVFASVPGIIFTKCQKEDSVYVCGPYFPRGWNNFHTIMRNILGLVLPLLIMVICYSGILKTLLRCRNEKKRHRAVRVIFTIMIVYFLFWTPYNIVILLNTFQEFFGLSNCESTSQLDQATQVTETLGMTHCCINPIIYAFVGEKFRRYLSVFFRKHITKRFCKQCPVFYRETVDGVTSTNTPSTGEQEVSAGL
From the text: Y4T3 was humanized by CDR-grafting resulting in hY4T3. Databases of Human IgG sequences and human germline sequences were searched for comparison to the murine VH domain and VL domain using BLAST search algorithms, and candidate human variable domains selected from the top 200 BLAST results. These were reduced to five candidates for VH (HC1-HC5 or H1-H5) and five candidates for VL (LC1-LC5 or L1-L5) based on a combination of framework homology, maintaining key framework residues and canonical loop structure. In total 25 humanized variants of Y4T3 were generated. The humanized Y4T3 variants were tested for binding to human CCR2+ monocytes in whole human blood by flow cytometry. 60 μl of lithium-heparin anticoagulated human whole blood was incubated for 45 min on ice with the indicated antibodies at 0.5 μg/ml in PBS. After three washing steps with cold PBS the bound antibodies were detected with PE-F(ab)2 goat anti human IgG (Jackson ImmunoResearch, 109-116-098) together with directly labeled antibodies against CD8, CD4, CD123 and CD116. After 2 washing steps with 0.9% NaCl red blood cells were lysed with Lysing Solution (BDBioscience) for 10 min in the dark. Cells were washed once with PBS and analyzed by flow cytometry to identify CCR2 expression on various cell types including monocytes. Mean fluorescence intensity (MFI) for PE was determined for these cell populations and is depicted.

Human CCR5 [4] = molecular target: T2, Human CCR5; test: summary table; binding to human CCR5
Human CCR2b (hCCR2b) [5] = molecular target: T4, Human CCR2b (hCCR2b); test: flow cytometry on human whole blood, classical monocytes, median fluorescence intensity
Procedure: Human heparinized whole blood was incubated with the indicated antibodies for 45 min on ice, washed three times with cold PBS, then stained with secondary PE-labeled rabbit-anti-mouse Ig (R0439, DakoCytomation 1:200) for 30 min on ice, washed 3 times with cold PBS. The 10% mouse serum was added for 10 min and after that directly labeled antibodies against CD3-APCCy7, CD8-PE-Cy7, CD4-V500, CD123-PerCP, CD304-APC, CD116-FITC, CD16-PB. After washing and lysis of red blood cells with BD Lysing solution cells were acquired on a FACSCanto-II and analyzed by FACS-DIVA software. Classical monocytes were identified by light scatter properties, expression of CD116 and absence of CD16 and CD123. Median fluorescence intensity for PE is depicted on classical monocytes.

[6] = molecular target: T5, Human CCR2b with ECL3 domain of CCR2b of rhesus monkey (human, with rhesus monkey ECL3 domain, UniProt O18793 1-360 (rhesus entry)); test: flow cytometry on stably transfected CHO cells, 10 µg/ml
T5 construct: On stably transfected CHO cells
T5 chain: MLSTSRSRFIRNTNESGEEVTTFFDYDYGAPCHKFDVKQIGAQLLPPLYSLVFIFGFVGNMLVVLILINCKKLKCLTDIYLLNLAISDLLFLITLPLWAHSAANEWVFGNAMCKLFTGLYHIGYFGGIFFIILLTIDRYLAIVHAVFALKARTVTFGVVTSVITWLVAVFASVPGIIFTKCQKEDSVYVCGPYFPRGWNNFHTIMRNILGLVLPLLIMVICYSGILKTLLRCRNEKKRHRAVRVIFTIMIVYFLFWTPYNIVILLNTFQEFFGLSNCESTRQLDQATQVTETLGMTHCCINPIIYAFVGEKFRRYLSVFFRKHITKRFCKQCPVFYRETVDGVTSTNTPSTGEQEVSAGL
Procedure: (§1) To further investigate the specificity of the antibodies of the present invention, binding of Y4T3 to various CCR2 constructs was tested. […] Untransfected CHO cells (empty) were also analyzed. Antibodies were tested at concentration of 10 μg/ml and incubated with the cells for 30 min on ice. After 3 washing steps with cold PBS, the bound antibodies were detected with a PE-labeled polyclonal rabbit anti-mouse immunoglobulins antibody (R0439 from Agilent Dako, diluted 1:200 in PBS) for 30 min on ice. After two washing steps with PBS, cells were analyzed by flow cytometry. Mean fluorescence intensity for PE was determined on cells and is depicted.

[7] = molecular target: T6, Human CCR2b with the N-terminus of CCR2b of rhesus monkey (human, with rhesus monkey N-terminus, UniProt O18793 1-360 (rhesus entry)); test: as above
T6 construct: On stably transfected CHO cells
T6 chain: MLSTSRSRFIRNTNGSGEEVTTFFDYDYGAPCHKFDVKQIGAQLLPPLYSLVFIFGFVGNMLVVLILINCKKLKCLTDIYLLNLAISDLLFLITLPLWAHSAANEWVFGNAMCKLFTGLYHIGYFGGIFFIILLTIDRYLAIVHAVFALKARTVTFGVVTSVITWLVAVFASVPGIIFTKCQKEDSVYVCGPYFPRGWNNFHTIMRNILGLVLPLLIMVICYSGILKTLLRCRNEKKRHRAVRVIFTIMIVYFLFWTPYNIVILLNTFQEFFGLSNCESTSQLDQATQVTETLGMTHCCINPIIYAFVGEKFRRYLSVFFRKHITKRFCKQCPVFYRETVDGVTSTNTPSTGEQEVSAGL
Procedure: as §1

Rhesus CCR2b (rh-CCR2B) = molecular target: T7, Rhesus CCR2b (rh-CCR2B) (rhesus monkey (Macaca mulatta), UniProt O18793 1-360); test: flow cytometry on stably transfected CHO cells
T7 construct: On stably transfected CHO cells
T7 sequence: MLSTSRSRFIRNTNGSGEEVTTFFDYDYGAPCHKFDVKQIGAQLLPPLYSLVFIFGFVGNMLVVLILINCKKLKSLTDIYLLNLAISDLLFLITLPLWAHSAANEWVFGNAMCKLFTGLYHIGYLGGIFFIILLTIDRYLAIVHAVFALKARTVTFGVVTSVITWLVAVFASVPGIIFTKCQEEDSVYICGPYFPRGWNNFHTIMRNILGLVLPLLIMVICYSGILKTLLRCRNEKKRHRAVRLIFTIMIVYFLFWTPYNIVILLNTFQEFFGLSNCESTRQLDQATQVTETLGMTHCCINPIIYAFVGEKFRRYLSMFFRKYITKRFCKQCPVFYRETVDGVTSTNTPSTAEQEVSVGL
Procedure: as §1

[8] = molecular target: T8, Human CCR2b with the ECL2 domain of CCR2b of rhesus monkey (ECL2-hCCR2b) (human, with rhesus monkey ECL2 domain, UniProt O18793 1-360 (rhesus entry)); test: flow cytometry on stably transfected CHO cells
T8 construct: On stably transfected CHO cells
T8 chain: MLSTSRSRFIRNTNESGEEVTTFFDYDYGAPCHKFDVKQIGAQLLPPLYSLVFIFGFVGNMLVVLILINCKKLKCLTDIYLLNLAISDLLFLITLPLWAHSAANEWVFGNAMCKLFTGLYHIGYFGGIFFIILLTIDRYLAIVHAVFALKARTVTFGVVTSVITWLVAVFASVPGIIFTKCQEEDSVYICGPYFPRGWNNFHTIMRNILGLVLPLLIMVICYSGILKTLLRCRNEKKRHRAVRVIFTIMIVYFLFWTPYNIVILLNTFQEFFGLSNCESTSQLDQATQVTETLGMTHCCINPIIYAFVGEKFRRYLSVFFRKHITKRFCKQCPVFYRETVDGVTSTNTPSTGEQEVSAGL
Procedure: as §1

[9] = molecular target: T1, Marmoset CCR2b (Marmo-CCR2b); test: summary table; affinity to CCR2 expressed on marmoset PBMCs

B2: Antibody Y4T3 (antibody, V domains shown)
VH: QVHLQQSGTELARPGASIKLSCKTSGSTFTRYTMHWIKQRPGQGLEWIGFIVPSTGYTKYNQKFKDKATLTADKSSSTAYMHLNSLTSEDSALYYCARNKEVDYGASWGQGTLVTVSA
VL: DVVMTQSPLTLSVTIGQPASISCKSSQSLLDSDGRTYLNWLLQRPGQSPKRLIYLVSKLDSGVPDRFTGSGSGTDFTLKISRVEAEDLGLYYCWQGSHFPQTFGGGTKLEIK
notes: also called Y3T3 [sic]; Y4T4 [sic]
- binding result (Human CCR5 [4]): no binding
- fold higher affinity than the tested prior art antibodies (DOC2, 1D9, Clone 48607) (Human CCR2b (hCCR2b) [5]): > 5 fold
- binding result [6]: binds
- binding result [7]: binds
- binding result (Rhesus CCR2b (rh-CCR2B)): no binding (tested: 10 µg/ml)
- binding result [8]: no binding (tested: 10 µg/ml)
- binding result [9]: binds

B3: human IgG1 chimeric variant of Y4T3 (Y4T3-chim) (antibody, V domains shown)
VH: QVHLQQSGTELARPGASIKLSCKTSGSTFTRYTMHWIKQRPGQGLEWIGFIVPSTGYTKYNQKFKDKATLTADKSSSTAYMHLNSLTSEDSALYYCARNKEVDYGASWGQGTLVTVSA
VL: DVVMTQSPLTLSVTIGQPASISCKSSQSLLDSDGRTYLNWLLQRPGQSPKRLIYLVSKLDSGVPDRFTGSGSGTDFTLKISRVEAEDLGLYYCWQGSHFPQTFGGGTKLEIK
notes: also called H0L0
- binding result (Human CCR5 [2]): no binding (tested: 10 µg/ml and 1 µg/ml)

Further lines, with some results ahead:

- binding result [1]: binds
- binding result (Mouse CCR2): no binding
- binding result (Human CCR2b (hCCR2b) [3]): binds
B1: hY4T3 (humanized Y4T3, variant H3L1) (antibody, V domains shown)
VH: QVQLVQSGAEVKKPGASVKVSCKASGSTFTRYTMHWVRQAPGQRLEWIGFIVPSTGYTKYNQKFKDRVTITRDTSASTAYMELSSLRSEDTAVYYCARNKEVDYGASWGQGTLVTVSS
VL: DVVMTQSPLSLPVTLGQPASISCKSSQSLLDSDGRTYLNWFQQRPGQSPRRLIYLVSKLDSGVPDRFSGSGSGTDFTLKITRVEAEDVGVYYCWQGSHFPQTFGQGTKVEIK
notes: detected with anti-human IgG; Human IgG1 is named as the preferred class
- binding result (Human CCR5 [2]): no binding (tested: 10 µg/ml and 1 µg/ml)

- binding result (Human CCR2b (hCCR2b) [5]): binds
B4: DOC-2 antibody (antibody, V domains shown)
VH: EVQLVESGGGLVKPGGSLKLSCVASGFTLSNYAMSWVRQSPEKRLEWVAEVSSSGIYIYYSDTVTGRFSISRDNAKNTLYLEMSSLRSEDTAIYYCARDRYAYAMDYWGHGTSVIVSS
VL: DIVMTQSPSSLAISVGQRVTLSCKSSQSLLNSYNQKNSLAWYQQKPGQSPKLLVYFASTRESGVPDRFIGSGSGTYFTLTITSVQAGDLADYFCQQHYSNPRTFGGGTRLEIK
notes: Prior art anti-CCR2 antibody; detected with anti-mouse Ig
